In publication PMC7319049 (Nature, 2020):

B1: Rtt102 (natural protein)
chain: MDPQTLITKANKVSYYGNPTSKESWRYDWYQPSKVSSNVQQPQQQLGDMENNLEKYPFRYKTWLRNQEDEKNLQRESCEDILDLKEFDRRILKKSLMTSHTKGDTSKATGAPSANQGDEALSVDDIRGAVGNSEAIPGLSAGVNNDNTKESKDVKMN
B2: Snf5 (natural protein)
chain: MNNQPQGTNSVPNSIGNIFSNIGTPSFNMAQIPQQLYQSLTPQQLQMIQQRHQQLLRSRLQQQQQQQQQTSPPPQTHQSPPPPPQQSQPIANQSATSTPPPPPAPHNLHPQIGQVPLAPAPINLPPQIAQLPLATQQQVLNKLRQQAIAKNNPQVVNAITVAQQQVQRQIEQQKGQQTAQTQLEQQRQLLVQQQQQQQLRNQIQRQQQQQFRHHVQIQQQQQKQQQQQQQHQQQQQQQQQQQQQQQQQQQQQQQQQQQQQQQQQQQQQGQIPQSQQVPQVRSMSGQPPTNVQPTIGQLPQLPKLNLPKYQTIQYDPPETKLPYPTYWSDKKADTDTLLYEQIIQRDKINKYSLIRETNGYDPFSIYGFSNKEYISRLWHTLKYYQDLKNTRMKSITSTSQKIPSASIWGNGYSGYGNGITNTTTRVIPQVEVGNRKHYLEDKLKVYKQAMNETSEQLVPIRLEFDQDRDRFFLRDTLLWNKNDKLIKIEDFVDDMLRDYRFEDATREQHIDTICQSIQEQIQEFQGNPYIELNQDRLGGDDLRIRIKLDIVVGQNQLIDQFEWDISNSDNCPEEFAESMCQELELPGEFVTAIAHSIREQVHMYHKSLALLGYNFDGSAIEDDDIRSRMLPTITLDDVYRPAAESKIFTPNLLQISAAELERLDKDKDRDTRRKRRQGRSNRRGMLALSGTSASNTSMNGVHNTVAAGNASSLPPGEILLPDIADIPRTFRTPVPSTLMPGGVDVGPSVESYELRNTTTYKSRPDRPKPVSPPCYIIDHIPGHSLLLSIKLPGKVNTKEEFAAAPNDTSSGTNAMLPSPESLKTKLNSNIRAGVTIPSIPNPIANHTVTNSPNPTLQPVIPGGAASKSVPTPSLPIAPPVAPHDSEATLLTNSNNGSSNNNTQNT
B3: Arp7 (natural protein)
chain: MTLNRKCVVIHNGSHRTVAGFSNVELPQCIIPSSYIKRTDEGGEAEFIFGTYNMIDAAAEKRNGDEVYTLVDSQGLPYNWDALEMQWRYLYDTQLKVSPEELPLVITMPATNGKPDMAILERYYELAFDKLNVPVFQIVIEPLAIALSMGKSSAFVIDIGASGCNVTPIIDGIVVKNAVVRSKFGGDFLDFQVHERLAPLIKEENDMENMADEQKRSTDVWYEASTWIQQFKSTMLQVSEKDLFELERYYKEQADIYAKQQEQLKQMDQQLQYTALTGSPNNPLVQKKNFLFKPLNKTLTLDLKECYQFAEYLFKPQLISDKFSPEDGLGPLMAKSVKKAGASINSMKANTSTNPNGLGTSHINTNVGDNNSTASSSNISPEQVYSLLLTNVIITGSTSLIEGMEQRIIKELSIRFPQYKLTTFANQVMMDRKIQGWLGALTMANLPSWSLGKWYSKEDYETLKRDRKQSQATNATN
B4: Swi1 (natural protein)
chain: MDFFNLNNNNNNNNTTTTTTTTNNNNTNNNNTNNNNNPANNTNNNNSTGHSSNTNNNTNNNNTNTGASGVDDFQNFFDPKPFDQNLDSNNNNSNSNNNDNNNSNTVASSTNFTSPTAVVNNAAPANVTGGKAANFIQNQSPQFNSPYDSNNSNTNLNSLSPQAILAKNSIIDSSNLPLQAQQQLYGGNNNNNSTGIANDNVITPHFITNVQSISQNSSSSTPNTNSNSTPNANQQFLPFNNSASNNGNLTSNQLISNYAASNSMDRSSSASNEFVPNTSDNNNNSNNHNMRNNSNNKTSNNNNVTAVPAATPANTNNSTSNANTVFSERAAMFAALQQKQQQRFQALQQQQQQQQNQQQQNQQPQQQQQQQQNPKFLQSQRQQQQRSILQSLNPALQEKISTELNNKQYELFMKSLIENCKKRNMPLQSIPEIGNRKINLFYLYMLVQKFGGADQVTRTQQWSMVAQRLQISDYQQLESIYFRILLPYERHMISQEGIKETQAKRIFLQQFLQELLKKVQQQQQAAALANANNNINSASSAPTPAAPGASVPATAAPGTEAGIVPVSANTPKSLNSNININVNNNNIGQQQVKKPRKQRVKKKTKKELELERKEREDFQKRQQKLLEDQQRQQKLLLETKLRQQYEIELKKLPKVYKRSIVRNYKPLINRLKHYNGYDINYISKIGEKIDSNKPIFLFAPELGAINLHALSMSLQSKNLGEINTALNTLLVTSADSNLKISLVKYPELLDSLAILGMNLLSNLSQNVVPYHRNTSDYYYEDAGSNQYYVTQHDKMVDKIFEKVNNNATLTPNDSNDEKVTILVDSLTGNQLPTPTPTEMEPDLDTECFISMQSTSPAVKQWDLLPEPIRFLPNQFPLKIHRTPYLTSLKKIKDEIDDPFTKINTRGAEDPKVLINDQLSTISMILRNISFSDNNSRIMSRNFYLKRFISDLLWLVLIHPENFTCNRKILNFKKDLVIVLSNISHLLEIASSIDCLLILILVISFGQPKLNPMASSSSFGSESLTFNEFQLQWGKYQTFGVDILAKLFSLEKPNLNYFKSILLNKNTGNNLYDRNSNNNHKDKKLLRRLLNLYNDNNKNNNNRHNLLNDVVSFLFSAIPLQQVLSQSADPSLLIDQFSPVISQSLTSILVIVQKILPLSNEVFEISENNSDSNSNNNGNKDSSFNFNKNLPFVWLSSEENIGSGLLKLSEIILNINNSTSKNTLLQQQNYSKVLLPSINISCVQLIKCLVEKSICFENCLNNDPEILKKIASIPNLFPTDLEIFQLFTNPSVDIQIINQYQLLYNLKNDILTNLE
B5: Arp9 (natural protein)
chain: MAPFRQDSILIIYPRSQTTLVQFGLNEETFTVPELEIPTQIYRTTRQDGSYTYHSTNKDNKAELIKPIQNGEIIDISAFTQFLRLIFVSILSDRANKNQDAFEAELSNIPLLLITHHSWSQSDLEIITQYVFESLEINNLIQLPASLAATYSMISLQNCCIIDVGTHHTDIIPIVDYAQLDHLVSSIPMGGQSINDSLKKLLPQWDDDQIESLKKSPIFEVLSDDAKKLSSFDFGNENEDEDEGTLNVAEIITSGRDTREVLEERERGQKVKNVKNSDLEFNTFWDEKGNEIKVGKQRFQGCNNLIKNISNRVGLTLDNIDDINKAKAVWENIIIVGGTTSISGFKEALLGQLLKDHLIIEPEEEKSKREEEAKSVLPAATKKKSKFMTNSTAFVPTIEYVQCPTVIKLAKYPDYFPEWKKSGYSEIIFLGAQIVSKQIFTHPKDTFYITREKYNMKGPAALWDVQF

Tests used:
Snf2 = Snf2 (S. cerevisiae, UniProt P22082 1-1703); experiment: cryo-EM structure
Chain of Snf2 (P22082 whole entry): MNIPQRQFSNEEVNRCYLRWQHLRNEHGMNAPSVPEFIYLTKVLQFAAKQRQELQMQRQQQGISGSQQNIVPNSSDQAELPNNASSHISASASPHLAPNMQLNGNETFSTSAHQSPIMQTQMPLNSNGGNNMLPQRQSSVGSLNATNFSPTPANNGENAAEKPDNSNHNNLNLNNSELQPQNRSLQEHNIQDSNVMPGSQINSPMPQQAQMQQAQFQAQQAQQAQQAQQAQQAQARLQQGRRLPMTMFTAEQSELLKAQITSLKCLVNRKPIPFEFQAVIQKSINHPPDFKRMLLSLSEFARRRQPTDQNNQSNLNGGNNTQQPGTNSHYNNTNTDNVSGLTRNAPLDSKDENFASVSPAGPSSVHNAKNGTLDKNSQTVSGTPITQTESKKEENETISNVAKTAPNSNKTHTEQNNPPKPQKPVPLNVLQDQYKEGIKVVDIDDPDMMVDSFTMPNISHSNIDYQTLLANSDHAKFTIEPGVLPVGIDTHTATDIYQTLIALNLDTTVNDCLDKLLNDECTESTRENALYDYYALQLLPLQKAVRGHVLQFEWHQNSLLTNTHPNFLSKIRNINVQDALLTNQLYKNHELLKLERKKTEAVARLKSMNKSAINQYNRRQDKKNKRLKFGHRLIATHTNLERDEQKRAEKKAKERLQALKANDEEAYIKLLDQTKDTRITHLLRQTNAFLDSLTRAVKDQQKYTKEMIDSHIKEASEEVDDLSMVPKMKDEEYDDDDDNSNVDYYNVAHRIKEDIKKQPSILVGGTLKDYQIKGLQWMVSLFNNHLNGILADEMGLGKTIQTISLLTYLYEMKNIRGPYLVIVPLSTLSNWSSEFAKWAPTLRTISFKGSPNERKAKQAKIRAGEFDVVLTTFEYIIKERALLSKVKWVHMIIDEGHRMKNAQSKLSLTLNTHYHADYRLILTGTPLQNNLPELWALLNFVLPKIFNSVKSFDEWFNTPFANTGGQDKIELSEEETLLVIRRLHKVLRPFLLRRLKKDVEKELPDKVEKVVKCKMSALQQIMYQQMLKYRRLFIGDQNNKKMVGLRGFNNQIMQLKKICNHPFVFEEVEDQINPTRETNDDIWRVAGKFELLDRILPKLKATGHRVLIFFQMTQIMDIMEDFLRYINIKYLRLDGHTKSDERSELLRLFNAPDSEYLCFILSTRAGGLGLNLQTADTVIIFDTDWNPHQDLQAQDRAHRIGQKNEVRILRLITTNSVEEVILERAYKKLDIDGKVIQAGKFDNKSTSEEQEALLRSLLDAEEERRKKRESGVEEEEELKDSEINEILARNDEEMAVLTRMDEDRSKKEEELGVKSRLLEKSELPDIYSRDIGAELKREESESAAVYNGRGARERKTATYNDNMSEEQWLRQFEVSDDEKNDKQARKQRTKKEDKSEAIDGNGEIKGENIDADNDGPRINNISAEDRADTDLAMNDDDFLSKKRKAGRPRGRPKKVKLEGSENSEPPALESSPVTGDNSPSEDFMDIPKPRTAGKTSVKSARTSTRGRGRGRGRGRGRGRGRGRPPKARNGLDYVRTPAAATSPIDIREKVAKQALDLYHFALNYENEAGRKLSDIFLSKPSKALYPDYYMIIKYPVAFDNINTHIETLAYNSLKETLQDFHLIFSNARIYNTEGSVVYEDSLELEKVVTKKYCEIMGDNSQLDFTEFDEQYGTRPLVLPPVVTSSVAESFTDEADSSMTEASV

Swi1 = target: B4; experiment: cryo-EM structure

binding result (Snf2)	binding result (Swi1)	Binder
binds		B1
	binds	B2
binds		B3
binds		B4
binds		B5
